Data taken from US20260167706A1, “ANTI-ADRENOMEDULLIN (ADM) ANTIBODY OR ANTI-ADM ANTIBODY FRAGMENT OR ANTI-ADM NON-IG SCAFFOLD FOR USE IN THERAPY OR PREVENTION OF SHOCK” (ADRENOMED AG, priority 2022, published 2026).

What was measured:
[1] = biological target: human recombinant adrenomedullin receptor (CRLR + RAMP3) (human)
[2] = biological target: human recombinant adrenomedullin receptor (CRLR + RAMP3) (human); remark: listed apart in the source

Which results are given for “human ADM 22-52 (from UniProt P35318) (peptide)”?
IC50 (read off the curve); cAMP, % inhibition, 0.67 nM mADM as agonist [1]: 2 µM; IC50 (read off the curve); cAMP, % inhibition, 5.63 nM hADM as agonist [2]: 0.2 µM
